Assay results: PMC5588548 (2017)

B1: TIMP-3 (protein)
chain: CTCSPSHPQDAFCNSDIVIRAKVVGKKLVKEGPFGTLVYTIKQMKMYRGFTKMPHVQYIHTEASESLCGLKLEVNKYQYLLTGRVYDGKMYTGLCNFVERWDQLTLSQRKGLNYRYHLGCNCKIKSCYYLPCFVTSKNECLWTDMLSNFGYPGYQSKHYACIRQKGGYCSWYRGWAPPDKSIINATDP
modifications: suramin (0.05 µg/ml)
B2: TIMP-3 (protein)
chain: B1 chain

Tests used:
Assay in all cases: inhibition of fluorescent peptide substrate cleavage, tight binding equation
[1] = target: T1, ADAMTS-5 lacking the C-terminal thrombospondin domain (Homo sapiens, UniProt Q9UNA0)
T1 chain: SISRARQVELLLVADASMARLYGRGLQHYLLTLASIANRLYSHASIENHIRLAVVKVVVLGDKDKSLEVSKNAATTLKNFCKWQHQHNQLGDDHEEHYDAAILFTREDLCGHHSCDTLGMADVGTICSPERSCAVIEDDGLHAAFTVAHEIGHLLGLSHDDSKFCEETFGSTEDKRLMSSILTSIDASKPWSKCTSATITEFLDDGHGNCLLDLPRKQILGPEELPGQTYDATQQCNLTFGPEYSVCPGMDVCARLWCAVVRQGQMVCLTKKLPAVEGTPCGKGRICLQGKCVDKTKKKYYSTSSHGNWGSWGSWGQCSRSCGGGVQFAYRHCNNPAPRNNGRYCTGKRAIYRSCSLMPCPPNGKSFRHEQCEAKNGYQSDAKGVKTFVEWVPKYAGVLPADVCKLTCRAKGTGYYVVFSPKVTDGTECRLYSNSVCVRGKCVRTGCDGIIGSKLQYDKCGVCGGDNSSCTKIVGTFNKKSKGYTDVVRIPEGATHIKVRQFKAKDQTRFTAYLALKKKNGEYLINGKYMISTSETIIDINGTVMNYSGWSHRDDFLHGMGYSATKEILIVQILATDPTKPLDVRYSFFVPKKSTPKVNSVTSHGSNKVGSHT

[2] = target: T2, MMP-1 catalytic domain (Homo sapiens, UniProt P03956)
T2 chain: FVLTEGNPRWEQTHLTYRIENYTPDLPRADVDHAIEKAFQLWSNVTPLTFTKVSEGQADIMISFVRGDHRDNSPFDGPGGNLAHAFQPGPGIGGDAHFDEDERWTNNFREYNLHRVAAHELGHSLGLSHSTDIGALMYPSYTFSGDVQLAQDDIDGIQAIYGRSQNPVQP

[3] = target: MMP-3 catalytic domain (Homo sapiens, UniProt P08254)
Chain of MMP-3 catalytic domain (P08254 100-272): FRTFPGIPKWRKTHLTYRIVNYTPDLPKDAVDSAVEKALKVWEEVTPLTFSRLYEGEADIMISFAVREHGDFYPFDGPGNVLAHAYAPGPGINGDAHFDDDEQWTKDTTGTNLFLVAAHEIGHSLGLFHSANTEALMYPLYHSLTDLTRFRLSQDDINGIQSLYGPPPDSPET

| Binder | Ki [1] | Ki [2] | Ki [3] |
| --- | --- | --- | --- |
| B1 | 1.6 nM | 0.65 nM | 0.76 nM |
| B2 | 2.03 nM | 0.66 nM | 1.14 nM |
